Measured values taken from patent US20030175712A1 (published 2003).
Residue numbers refer to the chain shown, from its start.

Experiments:
[1] = biological target: Gβγ (Ste4p/Ste18p) in yeast cells (S. cerevisiae) (UniProt P18852); assay: cell-based or functional assay
MBP-Far1 = biological target: T1, MBP-Far1 (S. cerevisiae, UniProt P21268 1-830, limits assumed); assay: in vitro binding of fusion proteins purified from E. coli
T1 construct: Expressed and purified from E. coli
T1 sequence (looked up): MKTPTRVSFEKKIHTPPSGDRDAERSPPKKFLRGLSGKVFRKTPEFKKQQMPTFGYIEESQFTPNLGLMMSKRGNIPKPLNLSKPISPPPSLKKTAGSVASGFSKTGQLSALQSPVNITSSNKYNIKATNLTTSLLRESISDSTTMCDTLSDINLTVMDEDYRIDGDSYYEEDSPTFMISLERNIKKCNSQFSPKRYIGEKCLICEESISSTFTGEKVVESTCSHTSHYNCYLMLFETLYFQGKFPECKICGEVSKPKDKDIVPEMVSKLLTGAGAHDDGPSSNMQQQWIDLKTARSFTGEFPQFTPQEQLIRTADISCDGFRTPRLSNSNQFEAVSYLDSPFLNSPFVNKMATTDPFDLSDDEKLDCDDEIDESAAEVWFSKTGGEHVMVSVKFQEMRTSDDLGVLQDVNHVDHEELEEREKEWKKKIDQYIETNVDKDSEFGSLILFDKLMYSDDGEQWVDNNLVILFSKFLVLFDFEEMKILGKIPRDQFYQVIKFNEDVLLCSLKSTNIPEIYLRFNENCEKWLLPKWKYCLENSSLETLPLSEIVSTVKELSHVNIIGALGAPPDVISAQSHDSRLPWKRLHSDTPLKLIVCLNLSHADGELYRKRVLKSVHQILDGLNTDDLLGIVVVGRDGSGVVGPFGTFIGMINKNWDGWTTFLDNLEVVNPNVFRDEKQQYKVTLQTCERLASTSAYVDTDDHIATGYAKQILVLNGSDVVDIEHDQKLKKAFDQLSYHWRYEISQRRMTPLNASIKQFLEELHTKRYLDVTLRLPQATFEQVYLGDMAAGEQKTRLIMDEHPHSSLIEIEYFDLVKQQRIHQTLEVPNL

MBP-Far1 H7 = biological target: T2, MBP-Far1 H7 (S. cerevisiae, UniProt P21268 1-755); assay: in vitro binding of purified MBP-Far1 and GST-Cdc24 fusions
T2 sequence (looked up): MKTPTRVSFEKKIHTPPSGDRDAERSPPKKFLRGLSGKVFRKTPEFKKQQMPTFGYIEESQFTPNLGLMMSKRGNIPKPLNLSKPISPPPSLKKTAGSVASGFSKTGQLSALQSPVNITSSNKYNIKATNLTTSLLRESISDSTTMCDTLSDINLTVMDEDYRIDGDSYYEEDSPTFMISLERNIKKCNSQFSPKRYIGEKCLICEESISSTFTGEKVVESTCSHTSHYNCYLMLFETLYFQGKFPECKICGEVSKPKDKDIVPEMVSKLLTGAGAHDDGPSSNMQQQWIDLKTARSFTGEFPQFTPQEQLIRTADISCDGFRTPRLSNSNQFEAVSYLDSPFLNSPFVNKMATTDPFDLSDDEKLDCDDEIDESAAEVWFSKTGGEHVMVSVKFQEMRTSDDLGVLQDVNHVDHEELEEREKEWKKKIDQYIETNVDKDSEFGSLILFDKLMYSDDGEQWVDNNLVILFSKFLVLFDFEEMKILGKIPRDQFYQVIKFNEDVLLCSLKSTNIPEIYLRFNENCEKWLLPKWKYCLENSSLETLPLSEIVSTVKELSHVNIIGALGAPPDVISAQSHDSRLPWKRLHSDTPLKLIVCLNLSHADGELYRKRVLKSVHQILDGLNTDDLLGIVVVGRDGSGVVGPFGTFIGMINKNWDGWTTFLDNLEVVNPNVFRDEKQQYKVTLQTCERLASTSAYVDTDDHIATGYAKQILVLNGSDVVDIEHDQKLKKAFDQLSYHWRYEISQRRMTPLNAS

3×myc-Cdc24-m1 mutant = biological target: T3, 3×myc-Cdc24-m1 mutant (S. cerevisiae, UniProt P11433 1-854); assay: co-precipitation with Far1-protein A on IgG-Sepharose from yeast extracts
T3 sequence (looked up): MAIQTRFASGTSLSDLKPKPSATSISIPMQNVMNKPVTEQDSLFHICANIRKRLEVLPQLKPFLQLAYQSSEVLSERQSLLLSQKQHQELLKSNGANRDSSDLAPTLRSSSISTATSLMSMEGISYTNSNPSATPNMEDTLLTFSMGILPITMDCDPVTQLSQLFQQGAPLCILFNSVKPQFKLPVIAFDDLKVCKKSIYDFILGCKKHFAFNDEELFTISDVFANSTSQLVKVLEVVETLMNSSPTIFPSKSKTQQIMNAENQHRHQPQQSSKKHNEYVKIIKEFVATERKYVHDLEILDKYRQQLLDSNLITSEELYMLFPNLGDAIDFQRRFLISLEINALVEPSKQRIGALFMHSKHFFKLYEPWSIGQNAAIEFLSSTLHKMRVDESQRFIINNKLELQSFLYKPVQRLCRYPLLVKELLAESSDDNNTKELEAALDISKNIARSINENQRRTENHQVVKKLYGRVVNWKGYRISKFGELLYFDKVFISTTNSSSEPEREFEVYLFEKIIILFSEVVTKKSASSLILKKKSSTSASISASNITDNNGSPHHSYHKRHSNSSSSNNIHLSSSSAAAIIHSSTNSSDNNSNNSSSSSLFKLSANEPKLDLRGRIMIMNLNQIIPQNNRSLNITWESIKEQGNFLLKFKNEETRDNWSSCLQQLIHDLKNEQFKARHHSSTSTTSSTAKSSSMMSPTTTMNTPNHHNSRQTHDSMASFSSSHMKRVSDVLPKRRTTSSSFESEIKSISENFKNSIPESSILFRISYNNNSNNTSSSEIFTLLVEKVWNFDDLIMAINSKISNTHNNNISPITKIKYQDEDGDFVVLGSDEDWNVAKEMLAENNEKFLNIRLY
Source text: Although cdc24-m and far1-s mutants result in similar defects in growth orientation during mating, we set out to determine if these genes function in the same orientation process. […] Cdc24 and Far1 were epitope tagged in order to determine whether these proteins interact in yeast cells. The chronosomal copy of Cdc24 was replaced with a 3×myc tagged Cdc24 and the chromosomal copy of Far1 was replaced with Far1 protein A fusion. Both of these fusion proteins are fully functional. Isolation of Far1-protein A from yeast extracts using IgG-Sepharose co-precipitated 3×myc-Cdc24. In contrast, the 3×myc-Cdc24-m1 mutant was defective in binding Far1 in similar imnmunoprecipitation assays.

[2] = biological target: T4, Cdc24p, two-hybrid construct (limits not stated) (S. cerevisiae, UniProt P11433 1-288); assay: yeast two-hybrid screen
T4 construct: not shown: GAL4 two-hybrid fusion partner
T4 sequence (looked up): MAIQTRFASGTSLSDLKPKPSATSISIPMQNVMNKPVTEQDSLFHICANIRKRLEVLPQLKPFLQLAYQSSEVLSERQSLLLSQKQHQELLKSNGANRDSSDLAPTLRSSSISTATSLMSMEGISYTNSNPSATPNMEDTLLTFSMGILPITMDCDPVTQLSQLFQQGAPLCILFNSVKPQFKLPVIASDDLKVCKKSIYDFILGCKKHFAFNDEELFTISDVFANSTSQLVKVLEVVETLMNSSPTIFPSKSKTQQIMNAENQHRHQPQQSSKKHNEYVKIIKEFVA

Sequence of Gβγ (Ste4p/Ste18p) in yeast cells (S. cerevisiae) (P18852 1-107): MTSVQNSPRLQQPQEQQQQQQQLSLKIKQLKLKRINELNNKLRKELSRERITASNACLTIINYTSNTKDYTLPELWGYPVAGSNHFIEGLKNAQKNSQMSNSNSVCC

## Cdc24p in CDC24 (wild type) yeast cells (from UniProt P11433 1-854)
[1]
  average cosine of the angle of cell projection relative to the micropipet (orientation in a pheromone gradient): 0.52

B1: GSTCdc24p (1-472 aa) (other, S. cerevisiae, UniProt P11433 1-472, looked up)
chain: MAIQTRFASGTSLSDLKPKPSATSISIPMQNVMNKPVTEQDSLFHICANIRKRLEVLPQLKPFLQLAYQSSEVLSERQSLLLSQKQHQELLKSNGANRDSSDLAPTLRSSSISTATSLMSMEGISYTNSNPSATPNMEDTLLTFSMGILPITMDCDPVTQLSQLFQQGAPLCILFNSVKPQFKLPVIASDDLKVCKKSIYDFILGCKKHFAFNDEELFTISDVFANSTSQLVKVLEVVETLMNSSPTIFPSKSKTQQIMNAENQHRHQPQQSSKKHNEYVKIIKEFVATERKYVHDLEILDKYRQQLLDSNLITSEELYMLFPNLGDAIDFQRRFLISLEINALVEPSKQRIGALFMHSKHFFKLYEPWSIGQNAAIEFLSSTLHKMRVDESQRFIINNKLELQSFLYKPVQRLCRYPLLVKELLAESSDDNNTKELEAALDISKNIARSINENQRRTENHQVVKKLYGRVV
notes: range 1-472; Expressed in E. coli; also called GSTCdc24 fusion; GST Cdc24 fusion (residues 1-472); not shown: glutathione-S-transferase as encoded by pGEX-2T (Pharmacia)
MBP-Far1
  binding result: binds
MBP-Far1 H7
  binding result: no binding

B2: Far1 protein A fusion (other, S. cerevisiae, UniProt P21268 1-830, looked up)
chain: T1 sequence (looked up)
notes: Isolated from yeast extracts on IgG-Sepharose; not shown: protein A moiety
3×myc-Cdc24-m1 mutant
  binding result: no binding

B3: Ste4p mutant (SEQ. I.D. No: 13) (other)
chain: MAHQMDSITYSNNVTQQYIQPQSLQDISAVEEEIQNKIEAARQESKQLHAQINKAKHKIQDASLFQMANKVTSLTKNKINLKPNIVLKGHNNKISDFRWSRDSKRILSASQDGFMLIWDSASGLKQNAIPLDSQWVLSCAISPSSTLVASAGLNNNCTIYRVSKENRVAQNVASIFKGHTCYISDIEFTDNAHILTASGDMTCALWDIPKAKRVRGYSDHLGDVLALAIPEEPNLENSSNTFASCGSDGYTYIWDSRSPSAVQSFYVNDSDINALRFFKDGMSIVAGSDNGAINMYDLRSDCSIATFSLFRGYEERTPTPTYMAANMEYNTAQSPQTLKSTSSSYLDNQGVVSLDFSASGRLMYSCYTDIGCVVWDVLKGEIVGKLEGHGGRVTGVRSSPDGLAVCTGSWDSTMKIWSPGYQ
notes: Isolated in a two-hybrid screen; also called mutant G protein β subunit; I.D. No: 12 (nucleotide); not shown: GAL4 two-hybrid fusion partner
[2]
  binding result: no binding

B4: Ste4p mutant (SEQ. I.D. No: 15) (other)
chain: B3 chain with G216E, V351A
notes: Isolated in a two-hybrid screen; also called mutant G protein β subunit; I.D. No: 14 (nucleotide); not shown: GAL4 two-hybrid fusion partner
[2]
  binding result: no binding
